Laboratory results reported in patent US20200018762.

T1: biotinylated H4-derived unphosphorylated peptide TVTAMDVVYALKRQGRT
T1 chain: TVTAMDVVYALKRQGRT


Tests used:
[1] = biological target: purified H4 protein (Example 3), P62805
[2] = biological target: T1, biotinylated H4-derived …
[3] = biological target: purified histone H3 (Example 2), P68431

Protein	in vitro kinase assay, immunoblot with pTyr51-H4 antibody [1]	in vitro kinase assay on immobilized peptide, ELISA with pY88-H4 antibodies [2]	in vitro kinase reaction, immunoblot with pTyr99-H3 antibody [3]
purified constitutively active E346K-Ack1 (HA-tagged) (protein) MQPEEGTGWLLELLSEVQLQQYFLRLRDDLNVTRLSHFEYVKNEDLEKIGMGRPGQRRLWEAVKRRKALCKRKSWMSKVFSGKRLEAEFPPHHSQSTFRKTSPAPGGPAGEGPLQSLTCLIGEKDLRLLEKLGDGSFGVVRRGEWDAPSGKTVSVAVKCLKPDVLSQPEAMDDFIREVNAMHSLDHRNLIRLYGVVLTPPMKMVTELAPLGSLLDRLRKHQGHFLLGTLSRYAVQVAEGMGYLESKRFIHRDLAARNLLLATRDLVKIGDFGLMRALPQNDDHYVMQEHRKVPFAWCAPESLKTRTFSHASDTWMFGVTLWEMFTYGQEPWIGLNGSQILHKIDKKGERLPRPEDCPQDIYNVMVQCWAHKPEDRPTFVALRDFLLEAQPTDMRALQDFEEPDKLHIQMNDVITVIEGRAENYWWRGQNTRTLCVGPFPRNVVTSVAGLSAQDISQPLQNSFIHTGHGDSDPRHCWGFPDRIDELYLGNPMDPPDLLSVELSTSRPPQHLGGVKKPTYDPVSEDQDPLSSDFKRLGLRKPGLPRGLWLAKPSARVPGTKASRGSGAEVTLIDFGEEPVVPALRPCAPSLAQLAMDACSLLDETPPQSPTRALPRPLHPTPVVDWDARPLPPPPAYDDVAQDEDDFEICSINSTLVGAGVPAGPSQGQTNYAFVPEQARPPPPLEDNLFLPPQGGGKPPSSAQTAEIFQALQQECMRQLQAPAGSPAPSPSPGGDDKPQVPPRVPIPPRPTRPHVQLSPAPPGEEETSQWPGPASPPRVPPREPLSPQGSRTPSPLVPPGSSPLPPRLSSSPGKTMPTTQSFASDPKYATPQVIQAPGPRAGPCILPIVRDGKKVSSTHYYLLPERPSYLERYQRFLREAQSPEEPTPLPVPLLLPPPSTPAPAAPTATVRPMPQAALDPKANFSTNNSNPGARPPPPRATARLPQRGCPGDGPEAGRPADKIQMAMVHGVTTEECQAALQCHGWSVQRAAQYLKVEQLFGLGLRPRGECHKVLEMFDWNLEQAGCHLLGSWGPAHHKR	When purified E346K-Ack1 and H4 were incubated, H4 was Tyr51-phosphorylated, however, Ack1 inhibitor AIM-100 abrogated H4 pTyr51-phosphorylation (FIG. 26B)	–	–
purified Ack1 (Examples 2 and 5) (protein) MQPEEGTGWLLELLSEVQLQQYFLRLRDDLNVTRLSHFEYVKNEDLEKIGMGRPGQRRLWEAVKRRKALCKRKSWMSKVFSGKRLEAEFPPHHSQSTFRKTSPAPGGPAGEGPLQSLTCLIGEKDLRLLEKLGDGSFGVVRRGEWDAPSGKTVSVAVKCLKPDVLSQPEAMDDFIREVNAMHSLDHRNLIRLYGVVLTPPMKMVTELAPLGSLLDRLRKHQGHFLLGTLSRYAVQVAEGMGYLESKRFIHRDLAARNLLLATRDLVKIGDFGLMRALPQNDDHYVMQEHRKVPFAWCAPESLKTRTFSHASDTWMFGVTLWEMFTYGQEPWIGLNGSQILHKIDKEGERLPRPEDCPQDIYNVMVQCWAHKPEDRPTFVALRDFLLEAQPTDMRALQDFEEPDKLHIQMNDVITVIEGRAENYWWRGQNTRTLCVGPFPRNVVTSVAGLSAQDISQPLQNSFIHTGHGDSDPRHCWGFPDRIDELYLGNPMDPPDLLSVELSTSRPPQHLGGVKKPTYDPVSEDQDPLSSDFKRLGLRKPGLPRGLWLAKPSARVPGTKASRGSGAEVTLIDFGEEPVVPALRPCAPSLAQLAMDACSLLDETPPQSPTRALPRPLHPTPVVDWDARPLPPPPAYDDVAQDEDDFEICSINSTLVGAGVPAGPSQGQTNYAFVPEQARPPPPLEDNLFLPPQGGGKPPSSAQTAEIFQALQQECMRQLQAPAGSPAPSPSPGGDDKPQVPPRVPIPPRPTRPHVQLSPAPPGEEETSQWPGPASPPRVPPREPLSPQGSRTPSPLVPPGSSPLPPRLSSSPGKTMPTTQSFASDPKYATPQVIQAPGPRAGPCILPIVRDGKKVSSTHYYLLPERPSYLERYQRFLREAQSPEEPTPLPVPLLLPPPSTPAPAAPTATVRPMPQAALDPKANFSTNNSNPGARPPPPRATARLPQRGCPGDGPEAGRPADKIQMAMVHGVTTEECQAALQCHGWSVQRAAQYLKVEQLFGLGLRPRGECHKVLEMFDWNLEQAGCHLLGSWGPAHHKR	–	Incubation of H4 peptide with WEE1 and Ack1 protein resulted in robust H4 Tyr88-phosphorylation	Ack1 directly phosphorylates histone H3 at Tyr99 (FIG. 23)
